Substrate: Nc1nc2c(ncn2[C@@H]2O[C@H](COP(=O)(O)OP(=O)(O)O[C@H]3O[C@H](CO)[C@@H](O)[C@H](O)[C@@H]3O)[C@@H](O)[C@H]2O)c(=O)[nH]1
Test: purified protein
Format: biochemical, Arabidopsis thaliana
Conditions: 50 mM Tris-HCl pH 8.0, 5 mM MgCl2, 37 °C, 10 min, GDP-D-Man 50 μM to 2 mM, apparent Km

B1: AtNUDX9 (Arabidopsis thaliana) (protein)
chain: MAKLAEEMNPEGSRYQLLLSCPSGLSPSQVSVDFSKSHDRIPRQDPGLEDSISQVWEQRSQGNSSLFNGQKFRYGGYCLDDDDGSTNEVPHVCLRLGLTDYRTFVGTNLSSLWEKFLVTSEDDSVRCRHTSSPLGNGAVIETSDKKIIVLRRSNNVGEFPGHYVFPGGHPEPTAVGIDYHQLENNVQTGEVLNKKVTQEMFDSIICEVVEETGIPASSLSSPLFIGISRRELNVRPAMFFYLKCSHHSDDIQRLYSSAEDGFESTQLHTVSLDELKMMTSRMPGCHHGGFALYELMLQRLKNTKETSLIAT
notes: recombinant with hexahistidine tag (pCold II), expressed in E. coli BL21(DE3) pLysS, His Trap HP purified
With B1 the Km was 0.376 ± 0.024 mM, the Vmax was 1.61 µmol/min/mg and the kcat was 0.93 ± 1.5 s⁻¹. It also gave a kcat/Km of 2400 M⁻¹ s⁻¹.
